In patent US20240254233A1 (IMMUNEONCIA THERAPEUTICS, published 2024):
Values belong to the binder of their own block, whether it stands above or below them.

Columns and labels:
recombinant human CD47 = target: T1, recombinant human CD47 (human, UniProt Q08722 19-139, limits assumed); assay: ELISA, recombinant human CD47 coated at 50 ng/well, anti-human IgG Fcγ-HRP detection
T1 construct: also called single ligand (CD47)

recombinant human PD-L1 = target: T2, recombinant human PD-L1 (human, UniProt Q9NZQ7 19-238, limits assumed); assay: ELISA, recombinant human PD-L1 coated at 75 ng/well, anti-human IgG Fcγ-HRP detection
T2 construct: also called single ligand (PD-L1)
T2 sequence (Q9NZQ7 19-238 limits assumed): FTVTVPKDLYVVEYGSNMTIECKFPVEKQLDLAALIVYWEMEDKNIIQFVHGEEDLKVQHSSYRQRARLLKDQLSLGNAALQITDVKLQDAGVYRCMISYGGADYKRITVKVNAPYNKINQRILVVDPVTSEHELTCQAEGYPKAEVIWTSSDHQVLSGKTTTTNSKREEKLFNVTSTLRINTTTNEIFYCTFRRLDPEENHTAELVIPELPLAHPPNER

[1] = target: T3, recombinant human CD47-fc (human, UniProt Q08722 19-139, limits assumed); assay: dual-ligand (bridging) ELISA: CD47-fc coated, antibody titrated, then PD-L1-his at 50 ng/well, anti-his-HRP detection
T3 construct: Coated at 50 ng/well in the dual-ligand ELISA
T3 sequence (Q08722 19-139 limits assumed): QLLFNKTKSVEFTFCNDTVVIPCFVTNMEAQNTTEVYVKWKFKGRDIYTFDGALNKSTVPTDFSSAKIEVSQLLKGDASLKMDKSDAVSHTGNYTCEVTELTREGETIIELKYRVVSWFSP

T1 sequence (Q08722 19-139 limits assumed): as above

EC50 (recombinant human CD47): 2.77 ng/mL
B1: IMC-002 (antibody, V domains shown)
VH: QVQLVQSGAEVKKPGASVKVSCKASGYTFTSYYMHWVRQAPGQGLEWMGIINPSGGSTSYAQKFQGRVTMTRDTSTSTVYMELSSLRSEDTAVYYCARSTLWVSEFDYWGQGTLVTVSS
VL: QSALTQPASVSGSPGQSISISCTGTSSDVGGHNYVSWYQQHPGKAPKLMIYDVRNRPSGVSNRFSGSKSGSTASLTISGLQTEDEADYYCNSYTGSRTYVFGSGTKLTVLG

EC50 (recombinant human PD-L1): 0.989 ng/mL
B2: IMC-001 (antibody, V domains shown)
VH: QMQLVQSGAEVKKPGSSVKVSCKASGGTFSSYAYSWVRQAPGQGLEWMGGIIPSFGTANYAQKFQGRVTITADESTSTAYMELSSLRSEDTAVYYCARGPIVATITPLDYWGQGTLVTVSS
VL: SYVLTQPPSVSVAPGKTATIACGGENIGRKTVHWYQQKPGQAPVLVIYYDSDRPSGIPERFSGSNSGNTATLTISRVEAGDEADYYCLVWDSSSDHRIFGGGTKLTVL

EC50 (recombinant human CD47): 4.09 ng/mL
EC50 [1]: 17.4 ng/mL
EC50 (recombinant human PD-L1): 7.24 ng/mL
B3: IMC-201 (bispecific antibody, human IgG1, lambda)
heavy: not shown
light: QSALTQPASVSGSPGQSISISCTGTSSDVGGHNYVSWYQQHPGKAPKLMIYDVRNRPSGVSNRFSGSKSGSTASLTISGLQTEDEADYYCNSYTGSRTYVFGSGTKLTVLGQPKAAPSVTLFPPSSEELQANKATLVCLISDFYPGAVTVAWKADSSPVKAGVETTTPSKQSNNKYAASSYLSLTPEQWKSHRSYSCQVTHEGSTVEKTVAPTECS
notes: also called Ab 1159.1
